Laboratory results: publication PMC4652773, “Functional significance of protein assemblies predicted by the crystal structure of the restriction endonuclease BsaWI”

Tests used:
Assay in all cases: EMSA; 5 mM Ca2+; EMSA: 40 mM Tris-acetate pH 8.3, 0.1 mg/ml BSA, 10% glycerol, 5 mM CaCl2 or 0.1 mM EDTA, 1 nM DNA, room temperature, 15 min
[1] = biological target: T1, BsaWI R130A (UniProt Q6UQ65 1-272, R130A); conditions: protein: recombinant; chain copies: 2; label: 33P; blunt
T1 sequence: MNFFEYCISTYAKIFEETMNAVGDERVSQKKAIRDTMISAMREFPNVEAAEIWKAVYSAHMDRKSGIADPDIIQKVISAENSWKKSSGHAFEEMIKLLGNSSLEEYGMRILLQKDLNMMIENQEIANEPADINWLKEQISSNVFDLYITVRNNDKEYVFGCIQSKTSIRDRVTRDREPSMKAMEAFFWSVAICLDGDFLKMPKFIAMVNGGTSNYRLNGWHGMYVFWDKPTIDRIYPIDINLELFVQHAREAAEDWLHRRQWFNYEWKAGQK

[2] = biological target: T2, BsaWI K85A (UniProt Q6UQ65 1-272, K85A); conditions: protein: recombinant; chain copies: 4; label: 33P; blunt
T2 sequence: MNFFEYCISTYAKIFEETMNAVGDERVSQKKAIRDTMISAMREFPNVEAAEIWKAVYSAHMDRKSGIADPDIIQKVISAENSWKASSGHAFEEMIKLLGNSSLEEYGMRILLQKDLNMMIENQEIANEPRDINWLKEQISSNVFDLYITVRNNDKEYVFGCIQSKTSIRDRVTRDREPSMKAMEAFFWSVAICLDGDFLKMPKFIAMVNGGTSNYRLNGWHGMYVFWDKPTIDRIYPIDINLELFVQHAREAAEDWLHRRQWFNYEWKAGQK

[3] = biological target: T3, BsaWI D175A (UniProt Q6UQ65 1-272, D175A); conditions: protein: recombinant; chain copies: 4; label: 33P; blunt
T3 sequence: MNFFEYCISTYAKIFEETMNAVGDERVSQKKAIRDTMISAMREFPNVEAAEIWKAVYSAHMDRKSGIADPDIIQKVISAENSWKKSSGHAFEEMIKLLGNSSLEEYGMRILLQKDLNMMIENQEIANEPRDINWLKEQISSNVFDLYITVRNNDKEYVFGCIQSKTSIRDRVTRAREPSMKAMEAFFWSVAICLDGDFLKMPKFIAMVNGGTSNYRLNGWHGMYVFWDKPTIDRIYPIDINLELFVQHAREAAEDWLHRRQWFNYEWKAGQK

[4] = biological target: T4, BsaWI E128A&W262A (UniProt Q6UQ65 1-272, E128A;W262A); conditions: protein: recombinant; chain copies: 2; label: 33P; blunt
T4 sequence: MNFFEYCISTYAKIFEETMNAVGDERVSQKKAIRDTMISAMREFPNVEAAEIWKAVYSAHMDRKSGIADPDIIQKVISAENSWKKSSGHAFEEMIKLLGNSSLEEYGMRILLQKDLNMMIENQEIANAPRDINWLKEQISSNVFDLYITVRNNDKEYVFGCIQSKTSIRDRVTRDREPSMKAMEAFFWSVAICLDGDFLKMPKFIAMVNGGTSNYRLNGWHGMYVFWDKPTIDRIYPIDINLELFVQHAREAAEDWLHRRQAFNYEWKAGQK

[5] = biological target: T5, BsaWI wt (UniProt Q6UQ65 1-272); conditions: protein: recombinant; chain copies: 4; label: 33P; blunt
T5 sequence: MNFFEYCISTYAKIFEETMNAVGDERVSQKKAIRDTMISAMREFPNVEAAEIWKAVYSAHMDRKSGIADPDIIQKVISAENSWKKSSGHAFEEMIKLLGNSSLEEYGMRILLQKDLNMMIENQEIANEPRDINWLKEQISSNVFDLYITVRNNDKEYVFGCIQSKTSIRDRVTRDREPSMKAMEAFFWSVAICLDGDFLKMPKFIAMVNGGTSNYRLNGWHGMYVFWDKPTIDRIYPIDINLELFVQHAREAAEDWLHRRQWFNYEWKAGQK

B1: SP (dsDNA)
DNA 1: GCCTTTCGGTTTACCGGTGTCATTCCGCTG
DNA 2: CAGCGGAATGACACCGGTAAACCGAAAGGC
Kd [1]: 3.9 ± 0.6 nM | Kd [2]: 229 ± 9.1 nM | Kd [3]: 6.1 ± 2.3 nM | Kd [4]: 2.7 ± 0.7 nM | Kd [5]: 2.9 ± 0.4 nM
